Reference: patent publication US20170174776A1 (Hoffmann-La Roche, published 2017)
Blank lines part the entries; values can stand above or below the binder they belong to.

Key:
[1] = biological target: T1, extracellular domain of the mouse transferrin receptor (mouse, UniProt Q62351 89-763); experiment: ELISA, coated mouse TfR ECD, pH 7.4
T1 construct: extracellular domain; Bought, SinoBiological #50741-M07H; also called mouse TfR

[2] = biological target: T1, extracellular domain of the mouse …; experiment: ELISA, coated mouse TfR ECD, pH 5.5
[3] = biological target: T1, extracellular domain of the mouse …; experiment: ELISA, coated mouse TfR ECD, pH 5.5 against pH 7.4
[4] = biological target: T2, fusion protein of the human transferrin receptor extracellular domain linked to human IgG1 Fc (human, UniProt P02786 89-760); experiment: ELISA, coated human TfR ECD-Fc, pH 5.5 against pH 7.4
T2 construct: extracellular domain; Bought, R&D Systems #2474-TR-050; also called human TfR; not shown: human IgG1 Fc
T2 sequence (P02786 89-760): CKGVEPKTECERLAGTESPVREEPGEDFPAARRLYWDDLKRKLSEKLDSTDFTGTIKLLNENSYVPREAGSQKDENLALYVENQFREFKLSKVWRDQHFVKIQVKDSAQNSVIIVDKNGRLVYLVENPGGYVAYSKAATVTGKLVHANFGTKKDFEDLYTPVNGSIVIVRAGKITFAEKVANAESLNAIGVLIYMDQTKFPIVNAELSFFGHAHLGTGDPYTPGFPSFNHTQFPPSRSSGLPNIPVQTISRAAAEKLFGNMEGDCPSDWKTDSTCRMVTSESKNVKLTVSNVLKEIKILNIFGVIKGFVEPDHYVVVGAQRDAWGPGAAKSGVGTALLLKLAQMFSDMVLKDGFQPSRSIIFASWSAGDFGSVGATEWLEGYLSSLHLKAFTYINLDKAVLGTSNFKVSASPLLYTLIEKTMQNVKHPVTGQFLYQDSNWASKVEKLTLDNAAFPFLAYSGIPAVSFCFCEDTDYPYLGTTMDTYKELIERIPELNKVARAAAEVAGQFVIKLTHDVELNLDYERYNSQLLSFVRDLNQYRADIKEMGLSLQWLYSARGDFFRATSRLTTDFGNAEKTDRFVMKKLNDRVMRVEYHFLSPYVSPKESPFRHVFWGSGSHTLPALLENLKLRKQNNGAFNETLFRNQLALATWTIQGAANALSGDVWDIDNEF
Protocol: (§1) A fusion protein of the human transferrin receptor extracellular domain linked to human IgG1 Fc (R&D Systems, Wiesbaden, Germany, #2474-TR-050) or the extracellular domain of the mouse transferrin receptor (SinoBiological, Beijing, China, #50741-M07H) or of the human insulin receptor (R&D Systems, Wiesbaden, Germany, #1544-IR/CF) were coated to a 96-well plate by incubating 50 μl of a solution of 1 μg/ml in PBS for 1 h at RT. […] After four further washes with PBS/0.1% (w/v) TWEEN 20, bound antibodies were detected using HRP-coupled secondary antibodies (Dianova, Hamburg, Germany, #109-036-097 or GE Healthcare, Freiburg, Germany, #NA9310V)(30 min., RT) and 50 μl of TMB (10 min., RT) substrate. Color development was stopped by addition of 50 μl of 1 N hydrochloric acid (HCl) and absorbance measured at 450 nm in a plate reader.

[5] = biological target: T2, fusion protein of the human transferrin …; experiment: ELISA, coated human TfR ECD-Fc, pH 5.5
Protocol: as §1

[6] = biological target: T2, fusion protein of the human transferrin …; experiment: ELISA, coated human TfR ECD-Fc, pH 7.4
Protocol: as §1

T1 sequence (Q62351 89-763): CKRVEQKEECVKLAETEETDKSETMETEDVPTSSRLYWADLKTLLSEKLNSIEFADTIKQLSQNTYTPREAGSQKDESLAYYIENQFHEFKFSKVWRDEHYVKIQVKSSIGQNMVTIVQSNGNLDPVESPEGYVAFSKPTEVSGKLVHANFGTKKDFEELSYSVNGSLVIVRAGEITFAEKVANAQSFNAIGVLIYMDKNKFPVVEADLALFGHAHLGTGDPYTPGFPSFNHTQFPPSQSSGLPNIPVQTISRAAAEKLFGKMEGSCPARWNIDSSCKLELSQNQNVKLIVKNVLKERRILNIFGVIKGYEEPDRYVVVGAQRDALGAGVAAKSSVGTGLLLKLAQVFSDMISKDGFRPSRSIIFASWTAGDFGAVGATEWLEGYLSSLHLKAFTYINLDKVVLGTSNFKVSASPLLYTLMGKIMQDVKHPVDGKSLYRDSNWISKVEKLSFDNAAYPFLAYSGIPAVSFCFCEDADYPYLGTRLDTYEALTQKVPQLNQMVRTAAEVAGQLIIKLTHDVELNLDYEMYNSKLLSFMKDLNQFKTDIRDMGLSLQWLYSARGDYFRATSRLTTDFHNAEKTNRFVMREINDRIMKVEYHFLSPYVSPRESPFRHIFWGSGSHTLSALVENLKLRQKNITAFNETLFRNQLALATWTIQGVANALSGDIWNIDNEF

EC50 [1]: 0.0511 µg/mL
EC50 [2]: 0.0549 µg/mL
ratio EC50 pH 5.5/EC50 pH 7.4 [3]: 1.1
B1: mAb 8D3 (rat anti-mouse transferrin-receptor antibody 8D3 variable regions with human IgG1 heavy and light chain constant regions) (antibody, V domains shown)
VH: EVQLVESGGGLVQPGNSLTLSCVASGFTFSNYGMHWIRQAPKKGLEWIAMIYYDSSKMNYADTVKGRFTISRDNSKNTLYLEMNSLRSEDTAMYYCAVPTSHYVVDVWGQGVSVTVSS
VL: DIQMTQSPASLSASLEEIVTITCQASQDIGNWLAWYQQKPGKSPQLLIYGATSLADGVPSRFSGSRSGTQFSLKISRVQVEDIGIYYCLQAYNTPWTFGGGTKLELK

ratio EC50 pH 5.5/EC50 pH 7.4 [4]: 1.3
EC50 [5]: 0.0098 µg/mL
EC50 [6]: 0.0078 µg/mL
B2: mAb 128.1 (mouse anti-human transferrin-receptor antibody 128.1 variable regions with human IgG1 heavy and light chain constant regions) (antibody, V domains shown)
VH: EVQLQQSGPELVKPGASMKISCKASGYSFTGYTMNWVKQSHGENLEWIGRINPHNGGTDYNQKFKDKAPLTVDKSSNTAYMELLSLTSEDSAVYYCARGYYYYSLDYWGQGTSVTVSS
VL: QIVLTQSPAIMSASPGEKVTMTCSASSSIDYIHWYQQKSGTSPKRWIYDTSKLASGVPARFSGSGSGTSYSLTISSMEPEDAATYYCHQRNSYPWTFGGGTRLEIR
